Source: patent publication US20230363418A1, “COMPOSITION FOR PREVENTING OR TREATING NEUROPSYCHOLOGIC DISEASE, COMPRISING MANF” (CEFO CO., LTD., priority 2020, published 2023)

Assays:
[1] = system: IBO-administered memory impairment and autism model; experiment: Morris water maze experiment; type: in vivo, rat; conditions: MANF-AAV-hMSC transplanted into the hippocampus of IBO rats
Method: Memory impairment and autism models were prepared by administering IBO to the entorhinal cortex of the rats, wherein the IBO destroys granule cells of the dentate gyrus (DG) and pyramidal cells of the hippocampus, which receive nerve signals input from the entorhinal cortex. Specifically, the rats were anesthetized with equitensin (10% ethanol containing 350 mM pentobarbital sodium, 250 mM chloral hydrate, 85 mM MgSO and 40% propylene glycol). The incisor bar of a stereotaxic device (Stoelting Co., U.S.A.) was placed 3.4 mm below the interaural line, and the injection needle angle was fixed at […] right from the center of the sagittal plane. […]
The same number of rats as in each group of Example 6-1 was subjected to the Morris water maze experiment in a round, rust-free and inner surface-white swimming pool (diameter 160 cm; height 60 cm). […] The final experiment measured the time the rat stayed where the platform was for 60 seconds after removing the platform (probe trial). Swimming time and training length were tracked and recorded using a video camera. […] The captured video pictures were analyzed with a video tracking system (Ethovision water maze program, Noldus Information Technology, Wogeningen, The Netherlands). The analyzed information included the time of swimming in the target quadrant, and the number of crossings the imaginary platform to find the removed platform.

[2] = system: hippocampus of IBO-administered memory impairment and autism model; experiment: Immunohistochemical analysis of brain tissue (BrdU, SOX2, DCX, NeuN, GAD67, CNPase); type: in vivo, rat; conditions: brain tissue after behavioral experiment
Method: The brain tissue stored in the same method as the immunostaining of Example 9-1 was washed twice with PBS, permeated in 0.5% Triton X-100 for 20 minutes, and cultured in 2N HCl at 37° C. for 30 minutes. Thereafter, blocking was performed in 15% standard serum, 3% bovine serum albumin (bio-WORLD, Dublin, OH, USA) and 0.1% Triton X-100 in a free-floating state for 2 hours. The tissue was doubly stained at 4° C. for 16 hours using BrdU (abcam, 1:700) antibody, SOX2 (R&D system, MAB2018, 1:2000), DCX (Santacruz, sc8066, 1:1000), NeuN (Millipore, MAB377B, 1:700), CNPase (Abcam, ab6319, 1:700), vGluT1 (Millipore, MAB5502, 1:700), GAD67 (Millipore, MAB5406, 1:2000) as primary antibodies. As secondary antibodies, mo-Alexa 488 (Invitrogen, A21202, 1:700), mo-Cy3 (Jackson lab, 715-165-151, 1:500), rb-Alexa 488 (Jackson lab, 711-546-152, 1:700), rat-Alexa 488 (Abcam, ab6326, 1:700), etc. were used. Immunostained tissues were scanned with a confocal microscope (LSM510, LSM800 Carl Zeiss, Oberkochen, Germany).
The number of differentiation markers in the hippocampus of each experimental animal was shown by counting the number of DAPI-labeled cells in the double and triple photographed slides and counting the number of each cells labeled by fluorescently labeling each differentiation marker, NeuN, CNPase, GAD and vGluT1. Here was counted the number of cells labeled with the secondary antibody that is precisely matched in shape and location and has the shape of a cell.

B1: MANF: one of 16 or more growth factors secreted into nerve stem cells by cerebrovascular cells; amino acid sequence of SEQ ID NO: 1 (protein)
chain: MRRMWATQGLAVALALSVLPGSRALRPGDCEVCISYLGRFYQDLKDRDVTFSPATIENELIKFCREARGKENRLCYYIGATDDAATKIINEVSKPLAHHIPVEKICEKLKKKDSQICELKYDKQIDLSTVDLKKLRVKELKKILDDWGETCKGCAEKSDYIRKINELMPKYAPKAASARTDL
modifications: MANF
memory ability in Morris water maze test [1]: memory improvement | differentiation of newly proliferated (BrdU stained) neural progenitor cells into GABAergic nerve cells (GAD) [2]: increased | differentiation of newly proliferated (BrdU stained) neural progenitor cells into mature nerve cells (NeuN) [2]: increased | differentiation of newly proliferated (BrdU stained) neural progenitor cells into oligodendrocytes (CNPase) [2]: increased | migration (DCX) of neural stem cells (Sox2+) ([2]; MANF-AAV-hMSC transplanted): promoted | proliferation (BrdU+, Ki67) of neural stem cells (Sox2+) ([2]; MANF-AAV-hMSC transplanted): promoted
